Each block holds one molecule with its values, some of them ahead of it.
Tests used:
Human Trop-2 = molecular target: T1, Human Trop-2 (Homo sapiens, UniProt P09758); experiment: Binding to human Trop-2 measured by surface plasmon resonance (SPR)
T1 sequence (P09758 27-323): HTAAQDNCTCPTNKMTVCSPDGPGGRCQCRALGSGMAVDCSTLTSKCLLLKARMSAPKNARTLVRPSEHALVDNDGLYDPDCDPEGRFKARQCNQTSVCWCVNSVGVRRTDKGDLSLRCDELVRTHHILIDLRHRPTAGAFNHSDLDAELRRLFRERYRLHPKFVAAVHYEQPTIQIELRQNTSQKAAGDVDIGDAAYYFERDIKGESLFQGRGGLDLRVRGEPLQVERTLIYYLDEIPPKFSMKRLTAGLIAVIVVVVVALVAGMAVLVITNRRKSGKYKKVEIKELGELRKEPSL
Text: (§1) To engineer an anti-mouse Trop-2 ADC binding to mouse Trop-2 with proprieties similar to SG, we selected a commercially available anti-mouse Trop-2 rabbit antibody (Sino Biological, #50922-R064) and murinized it to obtain an anti-mouse Trop-2 IgG2a (Rab64/mG2a/mKap). Rab64 mAb was then coupled to CL2A linker/SN-38 payload at a high DAR (˜8-9).

Mouse Trop-2 = molecular target: T2, Mouse Trop-2 (Mus musculus, UniProt Q8BGV3); experiment: Binding to mouse Trop-2 measured by surface plasmon resonance (SPR)
T2 sequence (Q8BGV3 25-317): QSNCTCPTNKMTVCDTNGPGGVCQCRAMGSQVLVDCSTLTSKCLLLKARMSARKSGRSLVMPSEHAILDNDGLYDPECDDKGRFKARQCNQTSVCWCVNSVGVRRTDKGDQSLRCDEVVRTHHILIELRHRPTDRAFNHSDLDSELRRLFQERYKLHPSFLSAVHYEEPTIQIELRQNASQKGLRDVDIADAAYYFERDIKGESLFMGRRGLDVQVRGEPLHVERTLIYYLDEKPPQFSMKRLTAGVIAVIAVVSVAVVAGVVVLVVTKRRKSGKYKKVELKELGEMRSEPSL
Text: as §1

Human Trop-2 (human) = Human Trop-2 (human) (UniProt P09758); experiment: SPR

Kd (Human Trop-2): 328 pM | KD (Mouse Trop-2): No binding detected
Molecule: hRS7-hIgG1k: humanized monoclonal antibody hRS7 IgG1κ, which binds to Trop-2

Kd (Human Trop-2 (human)): 328 pM | koff (Human Trop-2 (human)): 0.000144 s⁻¹ | kon (Human Trop-2 (human)): 440000 M⁻¹ s⁻¹
B1: hRS7-hIgG1k (antibody, INN chains, looked up, V domains shown)
VH: QVQLQQSGSELKKPGASVKVSCKASGYTFTNYGMNWVKQAPGQGLKWMGWINTYTGEPTYTDDFKGRFAFSLDTSVSTAYLQISSLKADDTAVYFCARGGFGSSYWYFDVWGQGSLVTVSS
VL: DIQLTQSPSSLSASVGDRVSITCKASQDVSIAVAWYQQKPGKAPKLLIYSASYRYTGVPDRFSGSGSGTDFTLTISSLQPEDFAVYYCQQHYITPLTFGAGTKVEIKR

Kd (Human Trop-2 (human)): 362 pM | koff (Human Trop-2 (human)): 0.000153 s⁻¹ | kon (Human Trop-2 (human)): 423000 M⁻¹ s⁻¹
B2: Sacituzumab Govitecan (SG, Trodelvy) (antibody, INN chains, looked up, IgG1, V domains shown)
VH: B1 VH
VL: B1 VL
modifications: CL2A-SN-38, DAR 7.5

— patent US20250249115A1, “COMBINATION THERAPY FOR TREATING TUMOR ANTIGEN EXPRESSING CANCERS” (Gilead Sciences, Inc., priority 2022, published 2025)
